Laboratory results taken from US20260102527A1 (VRIJE UNIVERSITEIT BRUSSEL, published 2026).
One block for each binder: values may come before it.

Key:
[1] = biological target: T1, cynomolgus CD8β-Fc protein (Sino Biologicals) (cynomolgus); assay: equilibrium binding ELISA, coated cynomolgus CD8β-Fc
T1 construct: Bought protein; also called cynomolgus CD8β protein
Protocol: (§1) Wells of a 96 well MicroWell MaxiSorp flat bottom plate (Thermo Fisher Scientific) were coated with 0.2 μg of recombinant hCD8αβ protein, 0.2 μg of cynomolgus CD8β-Fc protein (Sino Biologicals) or PBS overnight at 4° C. The next day, wells were washed 3 times with PBS-T (PBS+0.05% Tween20 (Merck-Millipore, Burlington, MA, USA). Next, wells were blocked with blocking buffer (2% Skimmed milk (Regilait) in PBS) for 1 h at room temperature (RT). Different concentrations of single domain antibodies, diluted in blocking buffer, were added to the wells and incubated for 1 h at RT. Single domain antibody binding was detected using a mouse-anti-HA antibody (1:2000, clone 16B12, Biolegend) and alkaline-phosphatase conjugated goat-anti-mouse antibody (1:200, clone A90-116AP, Bethyl Laboratories, Montgomery, TX, USA). Wells were washed 5 times with PBS-T between all incubation steps. Binding was determined using p-nitrophenyl phosphate (2 mg/ml resuspended in AP blot buffer (12.12 g/L Trizma base, 10.17 g MgCl2·6H20/L, 5.84 g/L NaCl); Thermo Fisher Scientific). Absorbance at 405 nm was measured via a VersaMax ELISA Microplate Reader, using the SoftMax® Pro software (Molecular Devices, San Jose, CA, USA).

[2] = biological target: T2, human CD8 (CD8αβ) on cells: SUP-T1 T cell lymphoma cells and primary human CD8+ T cells (human, UniProt P01732 22-235; P10966 22-210); assay: flow cytometry on SUP-T1 cells, anti-HA detection
T2 construct: whole, on cells; SUP-T1 endogenously expresses human CD8; primary T cells came from healthy donors; The sdAbs are directed to the CD8β chain; also called SUP-T1 cells; primary CD8+ T cells
Protocol: Serial dilutions of anti-hCD8β single domain antibodies were incubated with 500.000 SUP-T1 cells in FACS buffer (HBSS (Gibco, Thermo Fisher Scientific) supplemented with 1% FBS and 2 mM EDTA (Duchefa Biochemie, Haarlem, The Netherlands)) for 1 h at 4° C. Cells were washed once with FACS buffer. Next, single domain antibody binding was detected by incubation of the cells with an Alexa Fluor®-488 tagged anti-HA antibody (1:1000 in FACS buffer, clone 16B12, Biolegend, San Diego, CA, USA) for 30 min at 4° C. Again, cells were washed once with FACS buffer. Single domain antibody binding was determined using the FACS CANTO II analyser (BD Biosciences, Franklin Lakes, NJ, USA). The mean fluorescence intensity of single domain antibody binding was determined using FlowJo version 10.

[3] = biological target: T3, recombinant hCD8αβ protein (R&D systems) (human, UniProt P01732 22-182; P10966 22-170); assay: equilibrium binding ELISA, coated hCD8αβ protein
T3 construct: Bought protein; they are tied to this reagent by name only; also called human CD8 protein; human CD8β protein
Protocol: as §1

[4] = biological target: T4, human CD8α on CD3- CD56+ NK cells (express hCD8α but not hCD8β) (human, UniProt P01732 22-235); assay: flow cytometry on primary NK cells, anti-HA detection
T4 construct: whole, on cells; also called cell-exposed CD8a

[5] = biological target: T3, recombinant hCD8αβ protein (R&D systems); assay: SPR, Biacore T200, sdAb injected 250 to 1 nM, 25 °C, 1:1 fit
Protocol: The affinity of purified anti-hCD8β single domain antibodies to recombinant hCD8αβ protein (R&D systems, Minneapolis, MN, USA) was determined using the BIACORE-T200 device (Cytiva, Freiburg, Germany). Surface plasmon resonance measurements were performed at 25° C. with HEPES buffered saline (HBS, 20 mM of HEPES pH 7.4, 150 mM of NaCl, 3.4 mM of EDTA 0.05% Tween-20) running buffer. The single domain antibodies were injected consecutively in 2-fold serial dilutions, from 250 to 1 nM. The association step was 100 s, the dissociation step was 200 s, and the two-step regeneration of 35 s at 30 μL·min-1, using 100 mM glycine at pH 3.0, was performed. Local curve fitting analysis was performed using the BIACORE evaluation software (Cytiva) by fitting the obtained sensorgrams to theoretical curves, assuming 1-1 binding geometries. For the determination of the equilibrium dissociation constant, the ratio of the association and dissociation rate constants was determined.

T3 sequence (P01732 22-182 limits assumed, chain 1 of 2): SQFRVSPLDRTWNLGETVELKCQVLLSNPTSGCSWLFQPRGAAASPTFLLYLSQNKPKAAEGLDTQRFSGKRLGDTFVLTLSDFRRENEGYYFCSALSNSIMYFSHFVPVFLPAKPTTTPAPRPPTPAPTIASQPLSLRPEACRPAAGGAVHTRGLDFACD
T3 sequence (P10966 22-170 limits assumed, chain 2 of 2): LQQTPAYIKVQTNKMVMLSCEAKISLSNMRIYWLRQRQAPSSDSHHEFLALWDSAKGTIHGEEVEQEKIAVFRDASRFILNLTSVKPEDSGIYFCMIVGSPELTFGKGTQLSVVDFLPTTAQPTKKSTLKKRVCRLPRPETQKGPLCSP
T2 sequence (P01732 22-235, chain 1 of 2): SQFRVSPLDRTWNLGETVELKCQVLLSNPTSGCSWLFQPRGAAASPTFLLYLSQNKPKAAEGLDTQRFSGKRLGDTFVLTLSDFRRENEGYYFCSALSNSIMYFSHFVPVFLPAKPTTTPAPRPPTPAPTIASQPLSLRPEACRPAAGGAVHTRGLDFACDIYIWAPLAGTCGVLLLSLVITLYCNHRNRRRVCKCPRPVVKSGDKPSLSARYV
T2 sequence (P10966 22-210, chain 2 of 2): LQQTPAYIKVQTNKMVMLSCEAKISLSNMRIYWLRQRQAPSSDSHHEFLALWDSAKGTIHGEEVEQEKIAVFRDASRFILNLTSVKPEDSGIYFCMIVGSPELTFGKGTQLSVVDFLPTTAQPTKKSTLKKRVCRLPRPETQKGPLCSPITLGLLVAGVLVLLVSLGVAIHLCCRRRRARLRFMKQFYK
T4 sequence (P01732 22-235): as the sequence (P01732 22-235, chain 1 of 2) above

Kd [1]: 1.7 nM
Kd [2]: 2 nM
Kd [3]: 2.9 nM
binding result [4]: no binding (tested: 100 nM)
Kd [5]: 2.6 nM
B1: anti-human CD8β single domain antibody 22728 (VHH)
VHH: DVQLVESGGGLVQAGDSLRLSCVASGRTVSGGVMGWFRQAPGKGREFVASIKWESGRTYYVDSLKDGFTISRDSPKNTVYLQMTNLKPEDTAVYYCAAGIRVWQLSTLESTYDDWGQGTQVTVSS
notes: Llama-derived sdAb; detected through its C-terminal HA-tag in flow cytometry and ELISA; not shown: C-terminal HA-tag and His-tag (pMECS vector)

Kd [1]: 1.6 nM
Kd [2]: 16.8 nM
Kd [3]: 3.5 nM
Kd [5]: 5 nM
B2: anti-human CD8β single domain antibody 22772 (VHH)
VHH: DVQLVESGGGLVQPGGSLRLSCRASGHTFSDLSVGWFRRAPGKAREFVATTAWNGSIRYAESVKGRFTISRDNAANMMYLQMNSLKPEDTAIYYCAAAVGISYDYWGQGTQVTVSS
notes: detected through its C-terminal HA-tag; not shown: C-terminal HA-tag and His-tag (pMECS vector)

Kd [1]: 4.4 nM
Kd [2]: 16 nM
Kd [3]: 3.6 nM
binding result [4]: no binding (tested: 100 nM)
Kd [5]: 1 nM
B3: anti-human CD8β single domain antibody 22719 (VHH)
VHH: DVQLVESGGGLVQAGGSLRLSCRASGHTFSDTAVGWFRRVPGKEREFVATIAGSGSIRYSESVKGRFTISGDNAKNMVYLQMNRLKPEDTGVYYCAAAVGISYDYWGQGTQVTVSS
notes: as for B1
